In patent US20180092966A1 (CSL, published 2018):

What was measured:
[1] = biological target: T1, VWF-FP K1116C mutant (albumin-fused von Willebrand Factor) (human); test: covalent-FVIII ELISA over FVIII activity assay
T1 construct: Stably expressed in CHO cells with furin co-transfected; also called VWF-FP mutant K1116C; Cys residue at VWF aa position 1116; not shown: linker between VWF and albumin, made in analogy to WO 2009/156137

[2] = biological target: T2, VWF-FP E1015C mutant (albumin-fused von Willebrand Factor) (human); test: covalent-FVIII ELISA over FVIII activity assay
T2 construct: Stably expressed in CHO cells with furin co-transfected; also called VWF-FP mutant E1015C; Cys residue at VWF aa position 1015; not shown: linker between VWF and albumin, made in analogy to WO 2009/156137

[3] = biological target: T3, VWF-FP N1134C mutant (albumin-fused von Willebrand Factor) (human); test: covalent-FVIII ELISA over FVIII activity assay
T3 construct: Stably expressed in CHO cells with furin co-transfected; also called VWF-FP mutant N1134C; Cys residue at VWF aa position 1134; not shown: linker between VWF and albumin, made in analogy to WO 2009/156137

[4] = biological target: T4, VWF-FP H817C mutant (albumin-fused von Willebrand Factor) (human); test: covalent-FVIII ELISA over FVIII activity assay
T4 construct: Stably expressed in CHO cells with furin co-transfected; also called VWF-FP mutant H817C; Cys residue at VWF aa position 817; not shown: linker between VWF and albumin, made in analogy to WO 2009/156137

[5] = biological target: T5, VWF-FP L984C mutant (albumin-fused von Willebrand Factor) (human); test: covalent-FVIII ELISA over FVIII activity assay
T5 construct: Stably expressed in CHO cells with furin co-transfected; also called VWF-FP mutant L984C; Cys residue at VWF aa position 984; not shown: linker between VWF and albumin, made in analogy to WO 2009/156137

[6] = biological target: T6, VWF-FP R768C mutant (albumin-fused von Willebrand Factor) (human); test: covalent-FVIII ELISA over FVIII activity assay
T6 construct: Stably expressed in CHO cells with furin co-transfected; also called VWF-FP mutant R768C; Cys residue at VWF aa position 768; not shown: linker between VWF and albumin, made in analogy to WO 2009/156137

[7] = biological target: T1, VWF-FP K1116C mutant (albumin-fused von …); test: ELISA of co-expression supernatant: anti-VWF capture, 350 mM CaCl2 wash, anti-FVIII detection
Protocol: (§1) Cell culture supernatant samples (10 ml) from transient transfections were concentrated with Amicon Ultracell-30K (Millipore UFC903024; 3000 g centrifugation). FVIII covalently attached to VWF-FP in culture supernatant (concentrates) was determined by a standard ELISA. Briefly, microplates were incubated with 100 μL per well of the capture antibody (rabbit anti human VWF-IgG, Dako A0082 [Dako, Hamburg, Germany], diluted 1:2000 in buffer A [Sigma C3041, Sigma-Aldrich, Munich, Germany]) overnight at ambient temperature. After washing plates three times with buffer B (Sigma T9039), each well was incubated with 200 μL buffer C (Sigma T6789) for 1.5 hours at ambient temperature (blocking). After another three wash steps with buffer B, serial dilutions of the test sample in buffer B as well as serial dilutions of a control preparation of covalently linked FVIII-VWF-FP, (2.0-0.03 arbitrary U/ml in buffer B (we call these “arbitrary units” as they may not correspond to the standard FVIII units as determined using Standard Human Plasma); volumes per well: 100 μL) were incubated for 1.5 hours at ambient temperature. After three wash steps with buffer B, 200 μL of 350 mM CaCl₂ were added to each well and incubated for 1 hour at ambient temperature. CaCl₂ was removed (without washing) and additional 200 μl were added to each well and incubated further for 1 hour. After three wash steps with buffer B 100 μL of a 1:2 dilution in buffer B of the detection antibody (Detecting Antibody for FVIII:C, peroxidase labelled, Cedarlane CL20035K-D) were added to each well and incubated for 1 hour at ambient temperature. After three wash steps with buffer B, 100 μL of substrate solution (OUVF, Siemens Healthcare Diagnostics) were added per well and incubated for 15 minutes at ambient temperature in the dark. Addition of 100 μL undiluted stop dilution (OSFA, Siemens Healthcare Diagnostics) prepared the samples for reading in a suitable microplate reader at 450 nm wavelength. Concentrations of the test samples were then calculated using the standard curve with the control preparation.

[8] = biological target: T2, VWF-FP E1015C mutant (albumin-fused von …); test: as above
Protocol: as §1

[9] = biological target: T3, VWF-FP N1134C mutant (albumin-fused von …); test: as above
Protocol: as §1

[10] = biological target: T4, VWF-FP H817C mutant (albumin-fused von …); test: as above
Protocol: as §1

[11] = biological target: T5, VWF-FP L984C mutant (albumin-fused von …); test: as above
Protocol: as §1

[12] = biological target: T6, VWF-FP R768C mutant (albumin-fused von …); test: as above
Protocol: as §1

[13] = biological target: T1, VWF-FP K1116C mutant (albumin-fused von …); test: covalent-FVIII ELISA over FVIII antigen ELISA
[14] = biological target: T2, VWF-FP E1015C mutant (albumin-fused von …); test: covalent-FVIII ELISA over FVIII antigen ELISA
[15] = biological target: T3, VWF-FP N1134C mutant (albumin-fused von …); test: covalent-FVIII ELISA over FVIII antigen ELISA
[16] = biological target: T4, VWF-FP H817C mutant (albumin-fused von …); test: covalent-FVIII ELISA over FVIII antigen ELISA
[17] = biological target: T5, VWF-FP L984C mutant (albumin-fused von …); test: covalent-FVIII ELISA over FVIII antigen ELISA
[18] = biological target: T6, VWF-FP R768C mutant (albumin-fused von …); test: covalent-FVIII ELISA over FVIII antigen ELISA

T3 sequence (chain, as listed by the source N1134C N1134C): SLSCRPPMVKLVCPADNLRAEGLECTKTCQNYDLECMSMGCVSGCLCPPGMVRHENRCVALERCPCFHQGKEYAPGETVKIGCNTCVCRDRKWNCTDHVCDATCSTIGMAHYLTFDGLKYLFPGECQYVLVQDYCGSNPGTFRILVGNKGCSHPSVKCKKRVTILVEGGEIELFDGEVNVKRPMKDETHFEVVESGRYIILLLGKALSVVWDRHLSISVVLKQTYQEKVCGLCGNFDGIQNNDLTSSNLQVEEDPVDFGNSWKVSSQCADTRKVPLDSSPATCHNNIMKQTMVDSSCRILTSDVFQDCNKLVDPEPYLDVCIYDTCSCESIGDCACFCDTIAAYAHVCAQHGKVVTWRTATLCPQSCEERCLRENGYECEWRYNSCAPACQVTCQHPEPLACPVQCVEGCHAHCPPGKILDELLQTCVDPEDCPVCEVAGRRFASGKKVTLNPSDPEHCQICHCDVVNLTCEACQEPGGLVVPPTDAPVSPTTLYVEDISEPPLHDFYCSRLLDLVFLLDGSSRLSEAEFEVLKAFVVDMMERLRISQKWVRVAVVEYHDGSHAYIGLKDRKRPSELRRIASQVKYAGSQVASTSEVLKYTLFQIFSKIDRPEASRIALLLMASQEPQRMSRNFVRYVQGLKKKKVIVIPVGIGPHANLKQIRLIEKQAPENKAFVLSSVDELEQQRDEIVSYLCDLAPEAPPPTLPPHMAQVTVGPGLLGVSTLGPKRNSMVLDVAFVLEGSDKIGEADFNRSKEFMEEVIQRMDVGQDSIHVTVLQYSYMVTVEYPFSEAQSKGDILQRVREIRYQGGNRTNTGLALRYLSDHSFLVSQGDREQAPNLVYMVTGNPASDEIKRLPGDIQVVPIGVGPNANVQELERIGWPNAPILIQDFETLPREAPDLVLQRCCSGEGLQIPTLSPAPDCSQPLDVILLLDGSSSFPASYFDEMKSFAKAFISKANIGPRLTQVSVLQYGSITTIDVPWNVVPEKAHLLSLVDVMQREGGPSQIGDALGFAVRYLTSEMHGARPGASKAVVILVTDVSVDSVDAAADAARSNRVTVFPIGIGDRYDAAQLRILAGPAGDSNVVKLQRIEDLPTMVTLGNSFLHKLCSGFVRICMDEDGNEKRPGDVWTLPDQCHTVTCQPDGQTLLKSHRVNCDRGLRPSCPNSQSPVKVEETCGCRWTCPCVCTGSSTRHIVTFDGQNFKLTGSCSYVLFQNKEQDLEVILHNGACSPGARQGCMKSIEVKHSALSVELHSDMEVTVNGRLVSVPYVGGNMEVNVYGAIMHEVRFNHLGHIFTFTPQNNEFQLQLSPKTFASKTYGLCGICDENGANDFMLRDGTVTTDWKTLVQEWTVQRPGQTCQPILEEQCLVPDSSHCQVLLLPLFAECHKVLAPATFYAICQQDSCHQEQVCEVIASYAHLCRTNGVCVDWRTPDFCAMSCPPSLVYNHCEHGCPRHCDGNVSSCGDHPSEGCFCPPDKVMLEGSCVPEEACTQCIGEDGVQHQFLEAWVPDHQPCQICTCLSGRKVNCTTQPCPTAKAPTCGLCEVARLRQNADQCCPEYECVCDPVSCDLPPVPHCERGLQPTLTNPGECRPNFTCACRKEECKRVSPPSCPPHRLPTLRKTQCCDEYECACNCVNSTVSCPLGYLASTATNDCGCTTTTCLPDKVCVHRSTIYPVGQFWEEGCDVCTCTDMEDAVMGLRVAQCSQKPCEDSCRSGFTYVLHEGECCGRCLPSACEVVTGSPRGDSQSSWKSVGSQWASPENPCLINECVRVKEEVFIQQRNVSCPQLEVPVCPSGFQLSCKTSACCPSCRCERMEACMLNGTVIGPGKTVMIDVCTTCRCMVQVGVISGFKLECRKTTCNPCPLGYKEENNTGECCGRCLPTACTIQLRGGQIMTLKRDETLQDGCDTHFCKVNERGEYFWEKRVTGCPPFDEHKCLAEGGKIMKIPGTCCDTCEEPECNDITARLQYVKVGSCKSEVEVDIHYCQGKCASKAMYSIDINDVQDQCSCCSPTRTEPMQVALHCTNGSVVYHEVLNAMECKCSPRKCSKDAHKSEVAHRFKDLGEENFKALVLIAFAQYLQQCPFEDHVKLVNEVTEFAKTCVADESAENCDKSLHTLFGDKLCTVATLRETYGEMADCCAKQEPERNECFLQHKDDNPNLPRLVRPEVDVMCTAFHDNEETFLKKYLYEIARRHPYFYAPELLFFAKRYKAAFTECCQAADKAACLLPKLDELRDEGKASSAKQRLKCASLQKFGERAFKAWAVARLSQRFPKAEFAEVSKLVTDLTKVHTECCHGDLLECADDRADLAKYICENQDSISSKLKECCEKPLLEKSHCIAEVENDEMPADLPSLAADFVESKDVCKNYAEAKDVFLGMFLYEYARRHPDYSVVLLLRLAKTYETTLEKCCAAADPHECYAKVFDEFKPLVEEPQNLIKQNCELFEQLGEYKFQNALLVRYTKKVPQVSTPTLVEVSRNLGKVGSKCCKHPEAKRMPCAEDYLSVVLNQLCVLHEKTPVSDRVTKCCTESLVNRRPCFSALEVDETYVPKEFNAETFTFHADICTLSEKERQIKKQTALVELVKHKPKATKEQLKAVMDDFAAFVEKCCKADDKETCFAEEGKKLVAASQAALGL
T6 sequence (chain, as listed by the source R768C R768C): as the sequence (chain, as listed by the source N1134C N1134C) above, with R5C, C371N counted along it
T2 sequence (chain, as listed by the source E1015C E1015C): as the sequence (chain, as listed by the source N1134C N1134C) above, with E252C, C371N counted along it
T4 sequence (chain, as listed by the source H817C H817C): as the sequence (chain, as listed by the source N1134C N1134C) above, with H54C, C371N counted along it
T5 sequence (chain, as listed by the source L984C L984C): as the sequence (chain, as listed by the source N1134C N1134C) above, with L221C, C371N counted along it
T1 sequence (chain, as listed by the source K1116C K1116C): as the sequence (chain, as listed by the source N1134C N1134C) above, with K353C, C371N counted along it

ratio covalent FVIII/Total FVIII activity [1]: 0.61
ratio covalent FVIII/Total FVIII activity [2]: 1.59
ratio covalent FVIII/Total FVIII activity [3]: 1.87
ratio covalent FVIII/Total FVIII activity [4]: 1.89
ratio covalent FVIII/Total FVIII activity [5]: 2.45
ratio covalent FVIII/Total FVIII activity [6]: 18.8
covalent FVIII [7]: 666 amU/ml
covalent FVIII [8]: 1080 amU/ml
covalent FVIII [9]: 650 amU/ml
covalent FVIII [10]: 367 amU/ml
covalent FVIII [11]: 1900 amU/ml
covalent FVIII [12]: 2060 amU/ml
ratio covalent FVIII/Total FVIII antigen [13]: 1.89
ratio covalent FVIII/Total FVIII antigen [14]: 0.53
ratio covalent FVIII/Total FVIII antigen [15]: 6.11
ratio covalent FVIII/Total FVIII antigen [16]: 0.29
ratio covalent FVIII/Total FVIII antigen [17]: 0.96
ratio covalent FVIII/Total FVIII antigen [18]: 2.13
B1: Factor VIII SingleChain P1688C mutant (other)
chain: ATRRYYLGAVELSWDYMQSDLGELPVDARFPPRVPKSFPFNTSVVYKKTLFVEFTDHLFNIAKPRPPWMGLLGPTIQAEVYDTVVITLKNMASHPVSLHAVGVSYWKASEGAEYDDQTSQREKEDDKVFPGGSHTYVWQVLKENGPMASDPLCLTYSYLSHVDLVKDLNSGLIGALLVCREGSLAKEKTQTLHKFILLFAVFDEGKSWHSETKNSLMQDRDAASARAWPKMHTVNGYVNRSLPGLIGCHRKSVYWHVIGMGTTPEVHSIFLEGHTFLVRNHRQASLEISPITFLTAQTLLMDLGQFLLFCHISSHQHDGMEAYVKVDSCPEEPQLRMKNNEEAEDYDDDLTDSEMDVVRFDDDNSPSFIQIRSVAKKHPKTWVHYIAAEEEDWDYAPLVLAPDDRSYKSQYLNNGPQRIGRKYKKVRFMAYTDETFKTREAIQHESGILGPLLYGEVGDTLLIIFKNQASRPYNIYPHGITDVRPLYSRRLPKGVKHLKDFPILPGEIFKYKWTVTVEDGPTKSDPRCLTRYYSSFVNMERDLASGLIGPLLICYKESVDQRGNQIMSDKRNVILFSVFDENRSWYLTENIQRFLPNPAGVQLEDPEFQASNIMHSINGYVFDSLQLSVCLHEVAYWYILSIGAQTDFLSVFFSGYTFKHKMVYEDTLTLFPFSGETVFMSMENPGLWILGCHNSDFRNRGMTALLKVSSCDKNTGDYYEDSYEDISAYLLSKNNAIEPRSFSQNSRHRSTRQKQFNATTIPENTTLQSDQEEIDYDDTISVEMKKEDFDIYDEDENQSCRSFQKKTRHYFIAAVERLWDYGMSSSPHVLRNRAQSGSVPQFKKVVFQEFTDGSFTQPLYRGELNEHLGLLGPYIRAEVEDNIMVTFRNQASRPYSFYSSLISYEEDQRQGAEPRKNFVKPNETKTYFWKVQHHMAPTKDEFDCKAWAYFSDVDLEKDVHSGLIGPLLVCHTNTLNPAHGRQVTVQEFALFFTIFDETKSWYFTENMERNCRAPCNIQMEDPTFKENYRFHAINGYIMDTLPGLVMAQDQRIRWYLLSMGSNENIHSIHFSGHVFTVRKKEEYKMALYNLYPGVFETVEMLPSKAGIWRVECLIGEHLHAGMSTLFLVYSNKCQTPLGMASGHIRDFQITASGQYGQWAPKLARLHYSGSINAWSTKEPFSWIKVDLLAPMIIHGIKTQGARQKFSSLYISQFIIMYSLDGKKWQTYRGNSTGTLMVFFGNVDSSGIKHNIFNPPIIARYIRLHPTHYSIRSTLRMELMGCDLNSCSMPLGMESKAISDAQITASSYFTNMFATWSPSKARLHLQGRSNAWRPQVNNPKEWLQVDFQKTMKVTGVTTQGVKSLLTSMYVKEFLISSSQDGHQWTLFFQNGKVKVFQGNQDSFTPVVNSLDPPLLTRYLRIHPQSWVHQIALRMEVLGCEAQDLY
notes: Single-chain FVIII with partial B-domain deletion; also called FVIII-SC P1688C; Cys residue at FVIII aa position 1688
